Source: US20090136503A1 (BEIJING COTIMES BIOTECH, published 2009)
Residue numbers refer to the chain shown, from its start. Read-outs that look alike come from different tables or passages of the source.

Assays:
[1] = target: TRAIL-R1 and/or TRAIL-R2 on human cancer cells; experiment: cell-based or functional assay
[2] = target: T1, TRAIL-R2 on the surface of human tumor cells (human, UniProt O14763 56-440); experiment: cell-based or functional assay
[3] = target: T2, TRAIL-R4-Fc fusion protein (human, UniProt Q9UBN6 56-211); experiment: ELISA: plate coated with TRAIL-R4-Fc at 1 µg/ml, HRP goat anti-mouse IgG1, TMB
T2 construct: The origin of the protein is not described; also called TRAIL-R4-Fc fusion antigen; not shown: human IgG1 Fc
T2 sequence (looked up): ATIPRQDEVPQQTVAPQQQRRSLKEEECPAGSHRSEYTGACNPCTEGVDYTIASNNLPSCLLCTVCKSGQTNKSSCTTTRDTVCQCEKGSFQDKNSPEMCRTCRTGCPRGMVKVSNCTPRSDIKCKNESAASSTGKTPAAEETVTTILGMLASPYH

[4] = target: T3, BSA (bovine serum albumin), negative control (bovine, UniProt P02769 25-607); experiment: ELISA: plate coated with BSA (control) at 1 µg/ml, HRP goat anti-mouse IgG1, TMB
[5] = target: T4, TRAIL-R1-Fc fusion protein (human, UniProt O00220 24-239); experiment: ELISA: plate coated with TRAIL-R1-Fc at 1 µg/ml, CTB003 titrated, HRP anti-mouse IgG, TMB, OD 450/650
T4 construct: extracellular domain; also called TRAIL-R1-Fc fusion antigen; not shown: Fc portion of human IgG1

[6] = target: T5, TRAIL-R3-Fc fusion protein (human, UniProt O14798 26-221, limits assumed); experiment: ELISA: plate coated with TRAIL-R3-Fc at 1 µg/ml, CTB003 titrated, HRP anti-mouse IgG, TMB, OD 450/650
T5 construct: The origin of the protein is not described; also called TRAIL-R3-Fc fusion antigen; not shown: human IgG1 Fc
T5 sequence (looked up): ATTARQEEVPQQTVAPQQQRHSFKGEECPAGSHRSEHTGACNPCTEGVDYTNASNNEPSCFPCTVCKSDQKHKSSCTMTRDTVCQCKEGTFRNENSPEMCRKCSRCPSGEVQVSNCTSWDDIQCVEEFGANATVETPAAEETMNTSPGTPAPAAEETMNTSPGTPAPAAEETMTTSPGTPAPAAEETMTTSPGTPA

[7] = target: T6, Heterodimeric TRAIL-R1-Fc/TRAIL-R2-Fc fusion protein (human, UniProt O00220 24-239; O14763 56-210); experiment: ELISA: plate coated with TRAIL-R1/TRAIL-R2-Fc heterodimer at 1 µg/ml, CTB003 titrated, HRP anti-mouse IgG, TMB, OD 450/650
T6 construct: extracellular domain; also called TRAIL-R1/TRAIL-R2 dimer; TRAIL-R1/TRAIL-R2 heterodimer antigen; not shown: Fc portion of human IgG1

[8] = target: T1, TRAIL-R2 on the surface of human tumor …; experiment: cell-based or functional assay; remark: listed apart in the source
[9] = target: Human IgG1 (control antigen) (human); experiment: ELISA; human IgG1 captured on goat anti-human IgG, antibody at 2 µg/ml
[10] = target: T5, TRAIL-R3-Fc fusion protein; experiment: ELISA: plate coated with TRAIL-R3-Fc at 1 µg/ml, HRP goat anti-mouse IgG, TMB
[11] = target: T2, TRAIL-R4-Fc fusion protein; experiment: ELISA: plate coated with TRAIL-R4-Fc at 1 µg/ml, HRP goat anti-mouse IgG, TMB
[12] = target: TRAIL-R1 on the surface of human tumor cells (human, UniProt O00220 24-468); experiment: cell-based or functional assay
[13] = target: T5, TRAIL-R3-Fc fusion protein; experiment: ELISA: plate coated with TRAIL-R3-Fc at 1 µg/ml, HRP goat anti-human kappa, TMB
[14] = target: T2, TRAIL-R4-Fc fusion protein; experiment: ELISA: plate coated with TRAIL-R4-Fc at 1 µg/ml, HRP goat anti-human kappa, TMB
[15] = target: T3, BSA (bovine serum albumin), negative …; experiment: ELISA: plate coated with BSA (control) at 1 µg/ml, HRP goat anti-human kappa, TMB
[16] = target: T4, TRAIL-R1-Fc fusion protein; experiment: ELISA: plate coated with TRAIL-R1-Fc at 1 µg/ml, HRP goat anti-human kappa, TMB
[17] = target: T5, TRAIL-R3-Fc fusion protein; experiment: ELISA: plate coated with TRAIL-R3-Fc at 1 µg/ml, HRP goat anti-human kappa, TMB; remark: listed apart in the source
[18] = target: T2, TRAIL-R4-Fc fusion protein; experiment: ELISA: plate coated with TRAIL-R4-Fc at 1 µg/ml, HRP goat anti-human kappa, TMB; remark: listed apart in the source
[19] = target: T3, BSA (bovine serum albumin), negative …; experiment: ELISA: plate coated with BSA (control) at 1 µg/ml, HRP goat anti-human kappa, TMB; remark: listed apart in the source
[20] = target: T6, Heterodimeric TRAIL-R1-Fc/TRAIL-R2-Fc …; experiment: ELISA: plate coated with TRAIL-R1/TRAIL-R2-Fc heterodimer at 1 µg/ml, HRP goat anti-human kappa, TMB
[21] = target: T4, TRAIL-R1-Fc fusion protein; experiment: ELISA: plate coated with TRAIL-R1-Fc at 1 µg/ml, HRP goat anti-human kappa, TMB; remark: listed apart in the source
[22] = target: T5, TRAIL-R3-Fc fusion protein; experiment: ELISA: plate coated with TRAIL-R3-Fc at 1 µg/ml, HRP goat anti-human kappa, TMB; remark: listed apart in the source
[23] = target: T2, TRAIL-R4-Fc fusion protein; experiment: ELISA: plate coated with TRAIL-R4-Fc at 1 µg/ml, HRP goat anti-human kappa, TMB; remark: listed apart in the source
[24] = target: T3, BSA (bovine serum albumin), negative …; experiment: ELISA: plate coated with BSA (control) at 1 µg/ml, HRP goat anti-human kappa, TMB; remark: listed apart in the source
[25] = target: T6, Heterodimeric TRAIL-R1-Fc/TRAIL-R2-Fc …; experiment: ELISA: plate coated with TRAIL-R1/TRAIL-R2-Fc heterodimer at 1 µg/ml, HRP goat anti-human kappa, TMB; remark: listed apart in the source

T3 sequence (P02769 25-607 limits assumed): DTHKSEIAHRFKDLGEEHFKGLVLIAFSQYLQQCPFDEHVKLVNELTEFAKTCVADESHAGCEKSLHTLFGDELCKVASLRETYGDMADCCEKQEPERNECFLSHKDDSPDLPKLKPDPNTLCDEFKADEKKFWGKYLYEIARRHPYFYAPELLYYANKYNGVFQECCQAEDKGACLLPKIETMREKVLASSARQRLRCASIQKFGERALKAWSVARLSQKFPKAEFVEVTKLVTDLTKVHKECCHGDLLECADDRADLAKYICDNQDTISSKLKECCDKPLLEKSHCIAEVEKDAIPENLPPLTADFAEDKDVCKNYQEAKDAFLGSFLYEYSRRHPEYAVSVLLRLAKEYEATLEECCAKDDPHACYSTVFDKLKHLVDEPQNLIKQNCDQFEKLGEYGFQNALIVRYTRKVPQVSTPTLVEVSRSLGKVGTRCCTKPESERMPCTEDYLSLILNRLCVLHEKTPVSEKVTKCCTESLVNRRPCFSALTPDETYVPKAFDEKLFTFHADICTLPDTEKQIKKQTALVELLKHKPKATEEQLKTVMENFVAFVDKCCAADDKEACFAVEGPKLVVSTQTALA

B1: CTB003 murine monoclonal antibody (hybridoma CGMCC 1665) (antibody, mouse IgG1, V domains shown)
VH: EVHLVESGGGLVRPGGSLKLSCAASGFAFSSYDMSWVRQTPEKRLEWVAYISDGGGITYYPDTMKGRLTISRDNAKNTLSLQMSSLKSEDTAMYYCARHITMVVGPFAYWGQGTLVTVSA
VL: DIQMTQSSSSFSVSLGDRVTITCKAGEDIYNRLAWYQQKPGNAPRLLISGATNLETGVPSRFSGSGSGKDYTLSITSLQTEDVATYYCQQYWSTPLTFGAGTKLELK
notes: also called murine CTB003; parental murine CTB003
Which IC50 (ng/ml), killing of Carov 3 cells, ATPLite cell viability [1] does the source give for B1 here?
The IC50 (ng/ml), killing of Carov 3 cells, ATPLite cell viability was 24.6 ng/mL.

And the IC50 (ng/ml), killing of Colo205 cells, ATPLite cell viability [1]?
Its IC50 (ng/ml), killing of Colo205 cells, ATPLite cell viability is 7.1 ng/mL.

And the IC50 (ng/ml), killing of Du145 cells, ATPLite cell viability [1]?
The IC50 (ng/ml), killing of Du145 cells, ATPLite cell viability was 25.3 ng/mL.

What about the IC50 (ng/ml), killing of H-2122 cells, ATPLite cell viability [1] of the same binder?
Its IC50 (ng/ml), killing of H-2122 cells, ATPLite cell viability is 28.5 ng/mL.

What about the IC50 (ng/ml), killing of MDA231 cells, ATPLite cell viability [1] of the same binder?
Its IC50 (ng/ml), killing of MDA231 cells, ATPLite cell viability is 3.8 ng/mL.

What about the IC50 (ng/ml), killing of MIAcap cells, ATPLite cell viability [1] of the same binder?
The IC50 (ng/ml), killing of MIAcap cells, ATPLite cell viability was 13.2 ng/mL.

What about the “IC50 (read off the curve); cell viability (%) of Jurkat cells, ATPLite, 16 h” value [2] of the same binder?
Its value is about 0.02 µg/mL.

Does B1 bind [3]?
Result: no binding (tested: 1000 ng/ml)

Does B1 bind [4]?
Result: no binding (tested: 1000 ng/ml)

And the “EC50 (read off the curve)” value [5]?
Its value is about 0.02 µg/mL.

Does B1 bind [6]?
Result: no binding (tested: 10^4 ng/ml)

What about the “EC50 (read off the curve)” value [7] of the same binder?
The value was about 0.02 µg/mL.

B2: CTB006 murine monoclonal antibody against TRAIL-R2 (hybridoma CGMCC 1691) (antibody, V domains shown)
VH: QVQLQQPGPELVKPGASVRMSCKASGYTFTSYFIHWVKQRPGQGLEWIGWIYPGNVNTKYSEKFKGKATLTADKSSSTAYMQFSSLTSEDSAVYFCARGEAGYFDYWGQGTTLTVSS
VL: DIVMTQSHKFMSTSVGDRVSITCKASQDVSTAVAWYQQKPGQSPRLLIYWASTRHTGVPDRFTGSGSGTDYTLTISSVQAEDQALYYCQQHYRTPWTFGGGTKLEIK
notes: Murine monoclonal antibody; also called Anti-TRAIL-R2 (CTB006); CTB006-HRP
For B2, which “IC50 (ng/ml), killing of Carov 3 cells, ATPLite cell viability” value [8] is on record?
Its value is 17.4 ng/mL.

And the “IC50 (ng/ml), killing of Colo205 cells, ATPLite cell viability” value [8]?
Its value is 5.8 ng/mL.

What about the “IC50 (ng/ml), killing of Du145 cells, ATPLite cell viability” value [8] of the same binder?
The value was 55.6 ng/mL.

What about the “IC50 (ng/ml), killing of H-2122 cells, ATPLite cell viability” value [8] of the same binder?
The value was 44.1 ng/mL.

What about the “IC50 (ng/ml), killing of MDA231 cells, ATPLite cell viability” value [8] of the same binder?
Its value is 2.2 ng/mL.

What about the “IC50 (ng/ml), killing of MIAcap cells, ATPLite cell viability” value [8] of the same binder?
The value was 9.5 ng/mL.

And the “IC50 (read off the curve); cell viability (%) of Jurkat cells, ATPLite, 16 h” value [2]?
The value was about 0.01 µg/mL.

What about the OD 450 nm/650 nm [9] of the same binder?
The OD 450 nm/650 nm was 0.028 OD.

Does B2 bind [10]?
Result: no binding (tested: 1000 ng/ml)

Does B2 bind [11]?
Result: no binding (tested: 1000 ng/ml)

B3: Human chimeric CTB007 (mouse-human chimeric antibody) (antibody, V domains shown)
VH: EVQLQQSGAELVKPGASVKLSCTASGFNIKDTYMHWVKQRPEQGLEWIGRIDPANGNTKYDPKFQGKATITADTSSNTAYLQLSSLTSEDTAVYYCAYYYVSNAWFTYWGQGTLVTVSA
VL: DIQMTQSPASLSVSVGETVTITCRASENIYSNLEWYQQKQGKSPQLLVYAATNLADGVPSRFSGSGSGTQYSLKINSLQSEDFGSYYCQHFWGTWTFGGGTKLEIKR
notes: Human IgG1 / kappa constant regions, made in CHO cells; also called hCTB007; HuCTB007
B3 was tested. Which “IC50 (ng/ml), killing of Carov 3 cells, ATPLite cell viability” value [12] did it give?
The value was 31.6 ng/mL.

And the “IC50 (ng/ml), killing of Colo205 cells, ATPLite cell viability” value [12]?
Its value is 5.9 ng/mL.

And the “IC50 (ng/ml), killing of Du145 cells, ATPLite cell viability” value [12]?
Its value is 28.6 ng/mL.

What about the “IC50 (ng/ml), killing of H-2122 cells, ATPLite cell viability” value [12] of the same binder?
The value was 22.5 ng/mL.

And the “IC50 (ng/ml), killing of MDA231 cells, ATPLite cell viability” value [12]?
Its value is 7.5 ng/mL.

And the “IC50 (ng/ml), killing of MIAcap cells, ATPLite cell viability” value [12]?
Its value is 8.8 ng/mL.

Does B3 bind [13]?
Result: no binding (tested: 1000 ng/ml)

Does B3 bind [14]?
Result: no binding (tested: 1000 ng/ml)

Does B3 bind [15]?
Result: no binding (tested: 1000 ng/ml)

B4: Human chimeric CTB006 (mouse-human chimeric antibody) (antibody, V domains shown)
VH: B2 VH with Q1E, P7S
VL: DIVMTQSHKFMSTSVGDRVSITCKASQDVSTAVAWYQQKPGQSPRLLIYWASTRHTGVPDRFTGSGSGTDYTLTISSVQAEDQALYYCQQHYRTPWTFGGGTKLEIKR
notes: Human IgG1 / kappa constant regions, made in CHO cells; also called hCTB006; HuCTB006
What does the source list for B4?
IC50 (ng/ml), killing of Carov 3 cells, ATPLite cell viability [8]: 18.5 ng/mL; IC50 (ng/ml), killing of Colo205 cells, ATPLite cell viability [8]: 6.2 ng/mL; IC50 (ng/ml), killing of Du145 cells, ATPLite cell viability [8]: 52.3 ng/mL; IC50 (ng/ml), killing of H-2122 cells, ATPLite cell viability [8]: 42.1 ng/mL; IC50 (ng/ml), killing of MDA231 cells, ATPLite cell viability [8]: 1.5 ng/mL; IC50 (ng/ml), killing of MIAcap cells, ATPLite cell viability [8]: 10.1 ng/mL; binding result [16]: no binding (tested: 1000 ng/ml); binding result [17]: no binding (tested: 1000 ng/ml); binding result [18]: no binding (tested: 1000 ng/ml); binding result [19]: no binding (tested: 1000 ng/ml); binding result [20]: binds

B5: Human chimeric CTB003 (mouse-human chimeric antibody) (antibody, human IgG1, V domains shown)
VH: B1 VH with L68F
VL: DIQMTQSSSSFSVSLGDRVTITCKASEDIYNRLAWYQQKPGNAPRLLISGATSLETGVPSRFSGSGSGKDYTLSITSLQTEDVATYYCQQYWSTPLTFGAGTKLELKR
notes: Human IgG1 / kappa constant regions, made in CHO cells; also called hCTB003; HuCTB003
Which results are given for B5?
binding result [21]: binds; binding result [22]: no binding (tested: 1000 ng/ml); binding result [23]: no binding (tested: 1000 ng/ml); binding result [24]: no binding (tested: 1000 ng/ml); binding result [25]: binds
